Biological target: GAD-SNX5, C-terminally truncated splice variant of SNX5 lacking the last 45 amino acids
Experiment: yeast two-hybrid β-galactosidase liquid assay
Conditions: mean of four transformants with SD; parent: est. 190; read off a plot

response: 21 U
Substance: LexA-VPS13A(VAB), LexA DNA-binding domain fusion to the VAB domain of VPS13A (from UniProt Q96RL7) N2418S

Reference: PMC10053439
